Numbered stars: 1 amine (or outer) side, 2 acyl side, 3 side chain; on linkers, the order of the positions; unused ones are H or OH. Bridge positions count the residues as written; N and C are the ends. Square brackets hold non-standard residues; d marks the D form. Ends that are not written are not given here. Peptide text beside a SMILES is read from it. Bph3OMe = (S)-2-amino-3-(3'-methoxy-[1,1'-biphenyl]-4-yl)propanoic acid, COc1cccc(-c2ccc(C[C@H](N[*:1])C(=O)[*:2])cc2)c1; KCOpipzaa = N6-(4-(carboxymethyl)piperazine-1-carbonyl)-L-lysine, O=C(NCCCC[C@H](N[*:1])C(=O)[*:2])N1CCN(CC(=O)[*:3])CC1; X7 = O=C(O)CCC(NC(=O)CCNC(=O)[C@H](CSCC(=O)[*:1])CC(=O)[C@H](CO)N[*:2])C(=O)O; 3Pal(6-Ph) = N[C@@H](Cc1ccc(-c2ccccc2)nc1)C(=O)O; Phe(4-COOH) = N[C@@H](Cc1ccc(C(=O)O)cc1)C(=O)O; NMePhe(3-Me) = CN[C@@H](Cc1cccc(C)c1)C(=O)O; NMePhe(4-Me) = CN[C@@H](Cc1ccc(C)cc1)C(=O)O; Bip = N[C@@H](Cc1ccc(-c2ccccc2)cc1)C(=O)O; Phe(4-Cl) = N[C@@H](Cc1ccc(Cl)cc1)C(=O)O; Nle(6-COOH) = N[C@@H](CCCCC(=O)O)C(=O)O; X1 = N=C(CN)NCCC[C@H](N[*:1])C(=O)[*:2]; Phe(4-F) = N[C@@H](Cc1ccc(F)cc1)C(=O)O; Ala(4-THP) = N[C@@H](CC1CCOCC1)C(=O)O; cisHyp = O=C(O)[C@@H]1C[C@H](O)CN1; Hyp = O=C(O)[C@@H]1C[C@@H](O)CN1; NMeF = CN[C@@H](Cc1ccccc1)C(=O)O; 4Pal = N[C@@H](Cc1ccncc1)C(=O)O; Aad = N[C@@H](CCCC(=O)O)C(=O)O; Cha = N[C@@H](CC1CCCCC1)C(=O)O
Key:
BMP4 = target: T1, BMP4 (Homo sapiens, UniProt P12644); assay: BMP4 signal transduction inhibitory activity: SMAD1 phosphorylation by BMP4 stimulus, AlphaLISA SureFire, A549 cells; format: cell-based; details: for aLIZA BMP4 (0.2 nM) % Inh: SMAD1 phosphorylation by BMP4 stimulus; for aLIZA BMP4 (0.2 nM) % Inh / aLIZA BMP4 (0.2 nM) % inh: peptide conc. in assay 0.02, 0.2, 2 nM, class symbols; for aLISA BMP4: inhibition of SMAD1 phosphorylation by BMP4 stimulus, A549 cells, peptides of Synthesis 2, classes A-C, ND
T1 sequence (P12644 293-408): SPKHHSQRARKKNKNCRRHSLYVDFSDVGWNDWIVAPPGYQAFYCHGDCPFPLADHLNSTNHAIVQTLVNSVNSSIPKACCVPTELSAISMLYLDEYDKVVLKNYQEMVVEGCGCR

BMP7 = target: T2, BMP7 (Homo sapiens, UniProt P18075); assay: BMP7 signal transduction inhibitory activity: SMAD1 phosphorylation by BMP7 stimulus, A549 cells; format: cell-based; details: for aLIZA BMP7 (10 nM) % Inh: SMAD1 phosphorylation by BMP7 stimulus, peptide conc. in assay 10, 100, 1000 nM; for aLIZA BMP7 (10 nM) % Inh / aLIZA BMP7 (10 nM) % inh: class symbols; for aLISA BMP7: inhibition of SMAD1 phosphorylation by BMP7 stimulus, A549 cells, peptides of Synthesis 2, classes A-D, ND; for aLIZA BMP7 (10 nM) % inh: peptide conc. in assay 100, 300, 1000 nM
T2 sequence (P18075 293-431): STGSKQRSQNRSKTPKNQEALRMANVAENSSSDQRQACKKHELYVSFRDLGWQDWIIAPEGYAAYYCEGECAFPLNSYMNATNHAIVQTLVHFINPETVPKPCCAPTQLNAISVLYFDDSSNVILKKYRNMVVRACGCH
In short: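 Inhibition is read as reduced BMP7-driven SMAD1 phosphorylation in human A549 cells, with the BMP7 stimulus at 10 nM. Three-point peptide concentrations spanned 1–1,000 nM depending on the peptide series. Some peptides received eight-point, 1/3-ratio titrations from 100 nM or 1,000 nM, alongside a Noggin control.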

[1] = SMAD1 phosphorylation, BMP4 0.2 nM, peptide conc. in assay 0.2, 2, 20 nM
[2] = SMAD1 phosphorylation, BMP7 10 nM, peptide conc. in assay 1, 10, 100 nM
[3] = BMP4 0.2 nM stimulus, peptide conc. in assay 0.2, 2, 20 nM
[4] = BMP7 10 nM stimulus, peptide conc. in assay 1, 10, 100 nM
[5] = BMP4 0.2 nM stimulus, peptide conc. in assay 2, 20, 200 nM
[6] = BMP7 10 nM stimulus, peptide conc. in assay 10, 30, 90 nM

## 248 (E[KCOpipzaa]VYVDR[3Pal(6-Ph)]SYV[Bip]Y[Phe(4-COOH)][Phe(4-COOH)]SCG-NH2) [compound 248]
BMP4
  aLIZA BMP4 (0.2 nM) % Inh: C (showed less than 30% of inhibitory activity in 0.2 nM-addition zone and showed 30% or more of inhibitory activity in 2 nM-addition zone)
BMP7
  aLIZA BMP7 (10 nM) % Inh: ND (the inhibitory activity was less than 30% at the maximum concentration evaluated)

## 355 (FG[NMeF]G[Bip]GDD[Cha]A[NMeF]L[Hyp]CG-NH2; not fully specified (N-terminus, bridges)) [compound 355]
BMP4; [1]
  aLISA BMP4 (0.2 nM) % inh: A (showed less than 30% of inhibitory activity in 2 nM-peptide-addition zone and showed 30% or more of inhibitory activity in 20 nM-addition zone)
BMP7; [2]
  aLISA BMP7 (10 nM) % inh: D (showed less than 30% of inhibitory activity in 10 nM-addition zone and showed 30% or more of inhibitory activity in 100 nM-addition zone)

## 400 (FG[NMeF]G[Bip]GDE[Cha]Q[NMeF]L[cisHyp]CG-NH2) [compound 400]
BMP4; [3]
  aLISA BMP4 (0.2 nM) % inh: ND (the inhibitory activity was less than 30% at the maximum concentration evaluated)
BMP7; [4]
  aLISA BMP7 (10 nM) % inh: C (showed less than 30% of inhibitory activity in a zone to which the peptide was added in an amount of 1 nM and showed 30% or more of inhibitory activity in 10 nM-addition zone)

## 377 (FG[NMeF]G[4Pal]GDD[Cha]A[NMeF]LHCG-NH2; not fully specified) [compound 377]
BMP4; [5]
  aLISA BMP4 (0.2 nM) % inh: ND (the inhibitory activity was less than 30% at the maximum concentration evaluated)
BMP7; [6]
  aLISA BMP7 (10 nM) % inh: F (showed less than 30% of inhibitory activity in 10 nM-addition zone and showed 30% or more of inhibitory activity in 30 nM-addition zone)

## 244 (ARVYVDR[3Pal(6-Ph)]SYV[Bip]Y[Phe(4-COOH)][Phe(4-COOH)]SCG-NH2; not fully specified) [compound 244]
BMP4
  aLIZA BMP4 (0.2 nM) % Inh: C (showed less than 30% of inhibitory activity in 0.2 nM-addition zone and showed 30% or more of inhibitory activity in 2 nM-addition zone)
BMP7
  aLIZA BMP7 (10 nM) % Inh: ND (the inhibitory activity was less than 30% at the maximum concentration evaluated)

## 116 (EKVYVKRFPYPFYFFSCA; not fully specified; MOD_RES 2 K represents N6-(4-(Carboxymethyl) piperazine-1-carbonyl)-L-lysine(KCOpipzaa); MOD_RES 6 K represents N6-(4-(Carboxymethyl) piperazine-1-carbonyl)-L-lysine(KCOpipzaa); MOD_RES 8 F represents (S)-3-(1,1'-Biphenyl-4-yl)-2-aminopropanoic acid(Bph); MOD_RES 12 F represents (S)-3-(1,1'-Biphenyl-4-yl)-2-aminopropanoic acid(Bph); MOD_RES 14 F represents (S)-4-(2-amino-2-carboxyethyl)benzoic aci) [compound 116]
BMP4
  aLISA BMP4: A (showed an inhibitory activity of 50% or more in a zone to which the peptide was added to in an amount of 0.2 nM)
BMP7
  aLISA BMP7: C (showed less than 50% of inhibitory activity in 10 nM-addition zone and showed 50% or more of inhibitory activity in 100 nM-addition zone)

## 390 (FG[NMeF]G[Bip]GDD[Cha]A[NMePhe(3-Me)]LHCG-NH2) [compound 390]
BMP4; [5]
  aLISA BMP4 (0.2 nM) % inh: B (showed less than 30% of inhibitory activity in 20 nM-addition zone and showed 30% or more of inhibitory activity in 200 nM-addition zone)
BMP7; [6]
  aLISA BMP7 (10 nM) % inh: E (showed 30% or more of inhibitory activity in 10 nM-addition zone)

## 373 ([Phe(4-Cl)]G[NMeF]G[Bip]GDD[Cha]A[NMeF]LHCG-NH2; not fully specified) [compound 373]
BMP4; [5]
  aLISA BMP4 (0.2 nM) % inh: A (showed less than 30% of inhibitory activity in 2 nM-peptide-addition zone and showed 30% or more of inhibitory activity in 20 nM-addition zone)
BMP7; [6]
  aLISA BMP7 (10 nM) % inh: F (showed less than 30% of inhibitory activity in 10 nM-addition zone and showed 30% or more of inhibitory activity in 30 nM-addition zone)

## 344 (FG[NMeF]G[Bip]GDD[Cha]A[NMeF][Cha]HCG-NH2; not fully specified (N-terminus, bridges)) [compound 344]
BMP4; [1]
  aLISA BMP4 (0.2 nM) % inh: A (showed less than 30% of inhibitory activity in 2 nM-peptide-addition zone and showed 30% or more of inhibitory activity in 20 nM-addition zone)
BMP7; [2]
  aLISA BMP7 (10 nM) % inh: D (showed less than 30% of inhibitory activity in 10 nM-addition zone and showed 30% or more of inhibitory activity in 100 nM-addition zone)

## 403 (FG[NMeF]G[Bip]GDE[Cha][Aad][NMeF]L[cisHyp]CG-NH2; not fully specified) [compound 403]
BMP4; [3]
  aLISA BMP4 (0.2 nM) % inh: ND (the inhibitory activity was less than 30% at the maximum concentration evaluated)
BMP7; [4]
  aLISA BMP7 (10 nM) % inh: C (showed less than 30% of inhibitory activity in a zone to which the peptide was added in an amount of 1 nM and showed 30% or more of inhibitory activity in 10 nM-addition zone)

## 397 (FG[NMePhe(4-Me)]G[Bip]GDD[Cha]A[NMePhe(4-Me)]LHCG-NH2; not fully specified) [compound 397]
BMP4; [3]
  aLISA BMP4 (0.2 nM) % inh: ND (the inhibitory activity was less than 30% at the maximum concentration evaluated)
BMP7; [4]
  aLISA BMP7 (10 nM) % inh: D (showed less than 30% of inhibitory activity in 10 nM-addition zone and showed 30% or more of inhibitory activity in 100 nM-addition zone)

## 287 (ERV[Phe(4-COOH)][Ala(4-THP)][KCOpipzaa]R[3Pal(6-Ph)][KCOpipzaa]Y[Hyp][Bip][4Pal][Phe(4-COOH)][Phe(4-COOH)]SCG-NH2; not fully specified (N-terminus, bridges); also: cyclic peptide, ring not given here) [compound 287]
BMP4; BMP4 0.2 nM stimulus
  aLIZA BMP4 (0.2 nM) % inh: C (showed less than 30% of inhibitory activity in 0.2 nM-addition zone and showed 30% or more of inhibitory activity in 2 nM-addition zone)
BMP7; BMP7 10 nM stimulus
  aLIZA BMP7 (10 nM) % inh: H (showed less than 30% of inhibitory activity in 300 nM-addition zone and showed 30% or more of inhibitory activity in 1,000 nM-addition zone)

## CC(C)C[C@@H]1NC(=O)[C@H](Cc2ccc(O)cc2)NC(=O)[C@H](C(C)C)NC(=O)[C@H](CCCNC(=N)N)NC(=O)[C@H](CCCCC(=O)O)NC(=O)CSC[C@@H](C(=O)NCCC(=O)NC(CCC(=O)O)C(=O)O)CC(=O)[C@H](CO)NC(=O)[C@H](Cc2ccc(C(=O)O)cc2)NC(=O)[C@H](Cc2ccc(C(=O)O)cc2)NC(=O)[C@H](Cc2ccc(O)cc2)NC(=O)[C@H](Cc2ccc(-c3ccccc3)cc2)NC(=O)[C@H](C(C)C)NC(=O)[C@H](Cc2ccc(O)cc2)NC(=O)[C@@H]2CCCN2C(=O)[C@H](Cc2ccc(-c3ccccc3)nc2)NC(=O)[C@H](CCCNC(=N)CN)NC(=O)[C@H](CC(=O)O)NC1=O (some centres unmarked) [SEQ ID No. 84] ([Nle(6-COOH)]RVYLD[X1][3Pal(6-Ph)]PYV[Bip]Y[Phe(4-COOH)][Phe(4-COOH)]; linker N-C via X7)
BMP4
  aLISA BMP4: A (showed an inhibitory activity of 50% or more in a zone to which the peptide was added to in an amount of 0.2 nM)
BMP7
  aLISA BMP7: C (showed less than 50% of inhibitory activity in 10 nM-addition zone and showed 50% or more of inhibitory activity in 100 nM-addition zone)

## 80 ({CH2CO}-E[KCOpipzaa]VYVDR[Bip][KCOpipzaa]YP[Bip][Phe(4-F)][Phe(4-COOH)][4Pal]SCG-NH2; thioether N-17; not fully specified) [compound 80]
BMP4
  aLISA BMP4: A (showed an inhibitory activity of 50% or more in a zone to which the peptide was added to in an amount of 0.2 nM)
BMP7
  aLISA BMP7: C (showed less than 50% of inhibitory activity in 10 nM-addition zone and showed 50% or more of inhibitory activity in 100 nM-addition zone)

## 396 ([Phe(4-F)]G[NMeF]G[Bip]GDD[Cha]A[NMePhe(4-Me)]LHCG-NH2; not fully specified) [compound 396]
BMP4; [3]
  aLISA BMP4 (0.2 nM) % inh: A (showed less than 30% of inhibitory activity in 2 nM-peptide-addition zone and showed 30% or more of inhibitory activity in 20 nM-addition zone)
BMP7; [4]
  aLISA BMP7 (10 nM) % inh: C (showed less than 30% of inhibitory activity in a zone to which the peptide was added in an amount of 1 nM and showed 30% or more of inhibitory activity in 10 nM-addition zone)

## 296 (ERV[Phe(4-COOH)]V[KCOpipzaa]R[3Pal(6-Ph)][KCOpipzaa]Y[Hyp][Bph3OMe]Y[Phe(4-COOH)][Phe(4-COOH)]SCG-NH2; not fully specified (N-terminus, bridges); also: cyclic peptide, ring not given here) [compound 296]
BMP4; BMP4 0.2 nM stimulus
  aLIZA BMP4 (0.2 nM) % inh: B (showed less than 30% of inhibitory activity in 0.02 nM-addition zone and showed 30% or more of inhibitory activity in 0.2 nM-addition zone)
BMP7; BMP7 10 nM stimulus
  aLIZA BMP7 (10 nM) % inh: ND (the inhibitory activity was less than 30% at the maximum concentration evaluated)

Source: patent publication US20250361274A1, “PEPTIDE AND PEPTIDE-CONTAINING AGENT” (PEPTIDREAM INC., priority 2022, published 2025)
